In PMC6220978, “Induced conformational changes activate the peptidoglycan synthase PBP1B” (Molecular Microbiology, 2018):
Where a chain is given by its changes, count along the chain named.

What was measured:
Assay in all cases: SPR; PBP1B versions immobilised to the chip surface; LpoB injected from 19.5 nM to 10 μM; apparent KD by non-linear regression, at least three independent experiments
Conditions in all cases: both partners purified
[1] = target: T1, PBP1B D160C/K437C (E. coli, UniProt P02919 46-844, D160C | K437C)
T1 construct: PBP1B, E. coli, residues 46-844, made by mutagenesis of pDML924; Disulphide bridge between C160 and C437 (no free thiol groups detected); reduced in the SPR assay with 2 mM TCEP; source: E. coli BL21(DE3), purified (membrane extract, HisTrap, thrombin, HiTrap SP ion exchange)
T1 sequence (looked up): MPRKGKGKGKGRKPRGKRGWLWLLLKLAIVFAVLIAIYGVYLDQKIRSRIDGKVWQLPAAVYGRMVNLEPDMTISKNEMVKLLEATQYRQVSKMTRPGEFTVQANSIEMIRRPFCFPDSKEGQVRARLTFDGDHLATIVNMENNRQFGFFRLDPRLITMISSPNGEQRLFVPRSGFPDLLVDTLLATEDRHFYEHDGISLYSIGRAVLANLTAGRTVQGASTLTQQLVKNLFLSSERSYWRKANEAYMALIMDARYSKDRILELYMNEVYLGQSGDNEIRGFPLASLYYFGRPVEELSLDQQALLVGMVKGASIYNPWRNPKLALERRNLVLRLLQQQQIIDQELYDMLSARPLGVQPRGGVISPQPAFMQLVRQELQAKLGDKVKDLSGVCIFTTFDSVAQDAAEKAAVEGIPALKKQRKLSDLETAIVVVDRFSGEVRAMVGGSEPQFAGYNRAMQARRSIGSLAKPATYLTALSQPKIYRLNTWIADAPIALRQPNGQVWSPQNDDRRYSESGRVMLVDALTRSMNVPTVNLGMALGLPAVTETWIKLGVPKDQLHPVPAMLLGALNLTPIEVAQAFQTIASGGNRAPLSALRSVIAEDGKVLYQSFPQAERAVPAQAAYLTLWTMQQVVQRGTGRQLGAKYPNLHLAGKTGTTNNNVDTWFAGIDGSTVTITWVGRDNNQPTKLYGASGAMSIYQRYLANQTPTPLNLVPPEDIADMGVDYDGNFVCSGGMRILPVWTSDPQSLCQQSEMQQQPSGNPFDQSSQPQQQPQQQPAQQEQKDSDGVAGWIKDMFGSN

[2] = target: T2, PBP1B (wild type, PBP1B^46-844) (E. coli, UniProt P02919 46-844)
T2 construct: PBP1B, E. coli, residues 46-844, encoded on pDML924; Immobilised on the SPR chip as in Egan et al. 2014 / Gray et al. 2015; also called WT PBP1B; WT; source: E. coli BL21(DE3), purified (membrane extract, HisTrap, thrombin, HiTrap SP ion exchange)
T2 sequence (looked up): T1 sequence (looked up) with C115D, C392K

[3] = target: T3, PBP1B^Δ158–160 (E. coli, UniProt P02919 46-844, Δ158–160)
T3 construct: PBP1B, E. coli, residues 46-844 with residues 158-160 of Loop 1 removed, made by mutagenesis of pDML924; also called Loop 1 truncation; source: E. coli BL21(DE3), purified (membrane extract, HisTrap, thrombin, HiTrap SP ion exchange)
T3 sequence (looked up): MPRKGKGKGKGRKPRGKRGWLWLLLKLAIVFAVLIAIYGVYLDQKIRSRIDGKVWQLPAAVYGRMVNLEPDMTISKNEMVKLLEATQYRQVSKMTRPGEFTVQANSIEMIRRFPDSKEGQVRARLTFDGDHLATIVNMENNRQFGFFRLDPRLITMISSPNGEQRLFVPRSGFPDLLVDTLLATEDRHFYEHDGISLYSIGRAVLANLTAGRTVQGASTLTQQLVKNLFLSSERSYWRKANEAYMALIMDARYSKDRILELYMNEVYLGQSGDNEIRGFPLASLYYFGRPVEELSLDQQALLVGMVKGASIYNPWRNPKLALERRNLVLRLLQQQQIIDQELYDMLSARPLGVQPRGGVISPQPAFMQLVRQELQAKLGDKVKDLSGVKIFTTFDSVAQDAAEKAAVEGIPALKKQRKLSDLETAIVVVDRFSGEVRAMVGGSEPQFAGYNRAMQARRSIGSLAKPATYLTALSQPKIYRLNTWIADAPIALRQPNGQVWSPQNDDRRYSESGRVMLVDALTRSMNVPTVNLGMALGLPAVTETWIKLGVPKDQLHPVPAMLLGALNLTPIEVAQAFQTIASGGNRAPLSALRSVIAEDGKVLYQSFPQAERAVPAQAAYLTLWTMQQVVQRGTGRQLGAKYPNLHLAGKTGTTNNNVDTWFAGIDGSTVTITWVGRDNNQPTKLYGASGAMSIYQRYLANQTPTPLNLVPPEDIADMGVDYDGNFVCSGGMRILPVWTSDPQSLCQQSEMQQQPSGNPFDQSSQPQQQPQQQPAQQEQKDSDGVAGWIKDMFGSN

Kd [1]: 3970 nM
Kd [2]: 491 nM
Kd [3]: 1900 nM
B1: LpoB (natural protein, E. coli)
chain: VGQREPAPVEEVKPAPEQPAEPQQPVPTVPSVPTIPQQPGPIEHEDQTAPPAPHIRHYDWNGAMQPMVSKMLGADGVTAGSVLLVDSVNNRTNGSLNAAEATETLRNALANNGKFTLVSAQQLSMAKQQLGLSPQDSLGTRSKAIGIARNVGAHYVLYSSASGNVNAPTLQMQLMLVQTGEIIWSGKGAVSQQ
notes: LpoB, E. coli; also called lipoprotein LpoB; source: E. coli BL21(DE3), purified (HisTrap, Superdex 200), as in Egan et al. 2014
